Measurements taken from paper PMC8809517, “Cofactor-independent RNA editing by a synthetic S-type PPR protein”.

T1: GFP-9S library array, motif 4 ND N98I;D124A (synthetic construct, N98I;D124A)
T1 chain: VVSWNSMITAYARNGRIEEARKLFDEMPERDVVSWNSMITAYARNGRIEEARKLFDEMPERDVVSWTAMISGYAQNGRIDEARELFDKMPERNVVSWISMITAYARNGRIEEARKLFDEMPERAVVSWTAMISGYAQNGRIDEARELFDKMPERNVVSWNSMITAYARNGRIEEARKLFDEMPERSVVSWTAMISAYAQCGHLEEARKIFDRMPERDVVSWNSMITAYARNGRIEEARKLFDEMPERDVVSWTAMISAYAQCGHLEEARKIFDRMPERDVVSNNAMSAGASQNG

T2: GFP-9S library array, motif 4 ND N98Y;D124E (synthetic construct, N98Y;D124E)
T2 chain: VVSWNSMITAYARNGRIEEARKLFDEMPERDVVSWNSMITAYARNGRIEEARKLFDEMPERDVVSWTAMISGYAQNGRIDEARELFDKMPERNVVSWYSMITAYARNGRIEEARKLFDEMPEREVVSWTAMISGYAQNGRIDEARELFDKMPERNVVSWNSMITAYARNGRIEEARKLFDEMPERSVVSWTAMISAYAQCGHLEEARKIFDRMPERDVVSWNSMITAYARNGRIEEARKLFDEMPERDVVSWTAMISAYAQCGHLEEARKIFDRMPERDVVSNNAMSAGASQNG

T3: GFP-9S library array, motif 4 ND N98L;D124Q (synthetic construct, N98L;D124Q)
T3 chain: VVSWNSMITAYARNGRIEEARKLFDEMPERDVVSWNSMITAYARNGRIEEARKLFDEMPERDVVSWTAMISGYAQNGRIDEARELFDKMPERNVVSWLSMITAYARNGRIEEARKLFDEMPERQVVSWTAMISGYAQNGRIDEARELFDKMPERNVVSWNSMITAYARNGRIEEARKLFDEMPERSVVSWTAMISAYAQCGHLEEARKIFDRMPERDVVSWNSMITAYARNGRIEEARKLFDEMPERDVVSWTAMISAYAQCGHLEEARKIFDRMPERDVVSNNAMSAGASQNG

T4: GFP-9S library array, motif 4 ND N98S;D124N (synthetic construct, N98S;D124N)
T4 chain: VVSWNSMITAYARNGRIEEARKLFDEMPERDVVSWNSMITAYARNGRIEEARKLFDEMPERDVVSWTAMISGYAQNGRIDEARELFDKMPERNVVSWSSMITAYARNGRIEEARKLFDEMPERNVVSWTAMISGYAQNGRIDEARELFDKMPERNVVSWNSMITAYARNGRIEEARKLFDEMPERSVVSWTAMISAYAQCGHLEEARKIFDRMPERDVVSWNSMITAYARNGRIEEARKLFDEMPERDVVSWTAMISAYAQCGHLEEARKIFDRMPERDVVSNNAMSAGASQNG

T5: GFP-9S library array, motif 4 ND N98L;D124T (synthetic construct, N98L;D124T)
T5 chain: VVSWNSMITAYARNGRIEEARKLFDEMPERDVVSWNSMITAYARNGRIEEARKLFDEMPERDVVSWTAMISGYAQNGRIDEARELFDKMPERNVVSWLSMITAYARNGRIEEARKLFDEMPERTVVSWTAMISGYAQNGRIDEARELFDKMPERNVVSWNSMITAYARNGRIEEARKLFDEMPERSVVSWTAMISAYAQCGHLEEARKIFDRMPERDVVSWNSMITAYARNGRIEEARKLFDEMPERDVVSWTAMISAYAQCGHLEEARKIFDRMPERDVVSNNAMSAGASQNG


How the values were obtained:
Test in all cases: high-throughput RNA pulldown from lysate on Ni-NTA beads; HRP: 50 mM Tris pH 8, 150 mM NaCl, 1 mM beta-mercaptoethanol, 50 ug/ml BSA, 3 ug/ml yeast RNA, 0.5% heparin; ITC and FP: Tris pH 8, 200 mM KCl, 5% glycerol; MST: 50 mM Tris pH 8, 200 mM NaCl, 1 mM DTT, BSA, heparin, 0.05% Tween 20
Conditions in all cases: tags: N-terminal His-eGFP
[1] = target: T1, GFP-9S library array, motif 4 ND …
[2] = target: T2, GFP-9S library array, motif 4 ND …
[3] = target: T3, GFP-9S library array, motif 4 ND …
[4] = target: T4, GFP-9S library array, motif 4 ND …
[5] = target: T5, GFP-9S library array, motif 4 ND …

| Binder | Kd ([1]; label: 5' IRDye 800CW) | Kd ([2]; label: 5' IRDye 800CW) | Kd ([3]; label: 5' IRDye 800CW) | Kd ([4]; label: 5' IRDye 800CW) | Kd ([5]; label: 5' IRDye 800CW) | Kd ([1]; label: 5' Cy5) | Kd ([2]; label: 5' Cy5) | Kd ([3]; label: 5' Cy5) | Kd ([4]; label: 5' Cy5) | Kd ([5]; label: 5' Cy5) |
| --- | --- | --- | --- | --- | --- | --- | --- | --- | --- | --- |
| AUUAAACGUGA (ssRNA) [IR-rpoA-A] | 620 nM | 488 nM | 80 nM | 50.8 nM | 171 nM | – | – | – | – | – |
| AUUACACGUGA (ssRNA) [Cy5-rpoA] | – | – | – | – | – | 213 nM | 128 nM | 60 nM | 235 nM | 103 nM |
| AUUAGACGUGA (ssRNA) [Cy5-rpoA-G] | – | – | – | – | – | 259 nM | 169 nM | 68.5 nM | 296 nM | 206 nM |
| AUUAUACGUGA (ssRNA) [IR-rpoA-U] | 757 nM | 286 nM | 58.9 nM | 272 nM | 19 nM | – | – | – | – | – |
